Measurements as given in patent US20230272048A1 (UNIVERSITY OF MELBOURNE, published 2023).

T1: CenpB (human, UniProt P07199 1-599)
T1 sequence (looked up): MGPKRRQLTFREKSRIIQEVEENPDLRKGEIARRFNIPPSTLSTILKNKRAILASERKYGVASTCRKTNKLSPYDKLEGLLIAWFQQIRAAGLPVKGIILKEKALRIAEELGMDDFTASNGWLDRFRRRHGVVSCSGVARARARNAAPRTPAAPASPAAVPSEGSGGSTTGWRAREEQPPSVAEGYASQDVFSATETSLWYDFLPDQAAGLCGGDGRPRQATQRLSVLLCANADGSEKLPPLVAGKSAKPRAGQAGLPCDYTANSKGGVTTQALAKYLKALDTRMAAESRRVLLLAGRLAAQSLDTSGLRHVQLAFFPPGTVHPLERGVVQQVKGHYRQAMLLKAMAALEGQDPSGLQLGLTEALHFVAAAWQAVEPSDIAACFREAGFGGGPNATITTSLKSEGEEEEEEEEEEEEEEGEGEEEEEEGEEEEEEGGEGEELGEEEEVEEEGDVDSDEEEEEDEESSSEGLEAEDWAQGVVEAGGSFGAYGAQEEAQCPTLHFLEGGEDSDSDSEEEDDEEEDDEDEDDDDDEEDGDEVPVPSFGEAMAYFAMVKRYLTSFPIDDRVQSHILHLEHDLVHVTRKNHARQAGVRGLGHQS

B1: MEL-1872 (antibody)
VH: KVQLRESGPSLVKPSQTLSLTCTASGFSLSDKAVGWVRQAPGQPLEWLGTIDTTGNAVYNPGLKSRLSITKDNSKSQVSLSLSSVTTEDSATYHCSTVHQKTRRSCPSDYSFICDCEGTGSHCCRASNCPYYCNYGRDRMCTGRSNIHEWHVDAWGQGLLVTVSS
VL: QAVLTQPSSVSGSLGQRVSTTCSGSSSNVGNGYVSWYQLIPGSAPRTLIYGDTSRASGVPDRFSGSRSGNTVTLTISSLQAEDEADYFCASAEDGSSNAVFGRGTTLTV
notes: also called H 1872; BrNAb MEL-1872
B2: MEL-2129 (antibody)
VH: KVQLRESGPSLVKPSQTLSLTCTASGFSLSDKAVGWVRQAPGKALEWLGSIDTGGNAGYNPGLKSRLSITKGNSKSQVSLSVSSVTTEDSATYYCSTVHQKTRRSCPVDYYYSCDCEGSGSHCCSASNCPYYCKYGRDRVCTDKHTYSYEWYVDAWGQGLLVTVSS
VL: B1 VL
notes: also called BrNAb MEL-2129
B3: MEL-1842 (antibody)
VH: KVQLQESGPSLVKPSQTLSLTCTASGFSLSDKAVGWVRQAPGQALEWLGSIDTGGNADYNPGLKSRLSITKDNAKSQVSLSVSSVTTEGSATYYCSTVHQKTLRSCPSDYPYICDCEDTGSHCCRATNCPYYCNHGRDRMCTGRTYTYEWHVEAWGQGLLVTVSS
VL: B1 VL
notes: also called H 1842; BrNAb MEL-1842

Key:
E87A = molecular target: T2, E87A (HIV-1); assay: capture ELISA on Env of lysed AD8 pseudovirus, % of WT
T2 construct: full-length Env of lysed pseudovirus; HXB-2 numbering

K121A = molecular target: T3, K121A (HIV-1); assay: as above
T3 construct: full-length Env of lysed pseudovirus; HXB-2 numbering

L179A = molecular target: T4, L179A (HIV-1); assay: as above
T4 construct: full-length Env of lysed pseudovirus; HXB-2 numbering

D185A = molecular target: T5, D185A (HIV-1); assay: as above
T5 construct: full-length Env of lysed pseudovirus; HXB-2 numbering

N197A = molecular target: T6, N197A (HIV-1); assay: as above
T6 construct: full-length Env of lysed pseudovirus; HXB-2 numbering

N262A = molecular target: T7, N262A (HIV-1); assay: as above
T7 construct: full-length Env of lysed pseudovirus; HXB-2 numbering

N276A = molecular target: T8, N276A (HIV-1); assay: as above
T8 construct: full-length Env of lysed pseudovirus; HXB-2 numbering

K282A = molecular target: T9, K282A (HIV-1); assay: as above
T9 construct: full-length Env of lysed pseudovirus; HXB-2 numbering

N283A = molecular target: T10, N283A (HIV-1); assay: as above
T10 construct: full-length Env of lysed pseudovirus; HXB-2 numbering

P313A = molecular target: T11, P313A (HIV-1); assay: as above
T11 construct: full-length Env of lysed pseudovirus; HXB-2 numbering

A329K = molecular target: T12, A329K (HIV-1); assay: as above
T12 construct: full-length Env of lysed pseudovirus; HXB-2 numbering

Q363A = molecular target: T13, Q363A (HIV-1); assay: as above
T13 construct: full-length Env of lysed pseudovirus; HXB-2 numbering

S365A = molecular target: T14, S365A (HIV-1); assay: as above
T14 construct: full-length Env of lysed pseudovirus; HXB-2 numbering

P369A = molecular target: T15, P369A (HIV-1); assay: as above
T15 construct: full-length Env of lysed pseudovirus; HXB-2 numbering

M373A = molecular target: T16, M373A (HIV-1); assay: as above
T16 construct: full-length Env of lysed pseudovirus; HXB-2 numbering

R419A = molecular target: T17, R419A (HIV-1); assay: as above
T17 construct: full-length Env of lysed pseudovirus; HXB-2 numbering

G472A = molecular target: T18, G472A (HIV-1); assay: as above
T18 construct: full-length Env of lysed pseudovirus; HXB-2 numbering

M475A = molecular target: T19, M475A (HIV-1); assay: as above
T19 construct: full-length Env of lysed pseudovirus; HXB-2 numbering

R476A = molecular target: T20, R476A (HIV-1); assay: as above
T20 construct: full-length Env of lysed pseudovirus; HXB-2 numbering

CenpB = molecular target: T1, CenpB; assay: single autoantigen ELISA (AESKULISA ANA-8Pro), FIG. 9A
Text: Polyreactivity assay: Single autoantigen reactivity. […] ANA-8Pro (Aesku) for U1-ribonucleoprotein (RNP), SnRNP/Sm, Sm, SS-A, SS-B, Jo-1, Scl-70, and CenpB. The 96 wells were coated with these cellular and nuclear antigens for the qualitative detection of mAbs reactivity. The cut-off calibrator, negative control and positive control were provided by the manufacturer.

| Binder | Env binding (%) at antibody EC50 (E87A) [%] | Env binding (%) at antibody EC50 (K121A) [%] | Env binding (%) at antibody EC50 (L179A) [%] | Env binding (%) at antibody EC50 (D185A) [%] | Env binding (%) at antibody EC50 (N197A) [%] | Env binding (%) at antibody EC50 (N262A) [%] | Env binding (%) at antibody EC50 (N276A) [%] | Env binding (%) at antibody EC50 (K282A) [%] | Env binding (%) at antibody EC50 (N283A) [%] | Env binding (%) at antibody EC50 (P313A) [%] | Env binding (%) at antibody EC50 (A329K) [%] | Env binding (%) at antibody EC50 (Q363A) [%] | Env binding (%) at antibody EC50 (S365A) [%] | Env binding (%) at antibody EC50 (P369A) [%] | Env binding (%) at antibody EC50 (M373A) [%] | Env binding (%) at antibody EC50 (R419A) [%] | Env binding (%) at antibody EC50 (G472A) [%] | Env binding (%) at antibody EC50 (M475A) [%] | Env binding (%) at antibody EC50 (R476A) [%] | binding result (CenpB) |
| --- | --- | --- | --- | --- | --- | --- | --- | --- | --- | --- | --- | --- | --- | --- | --- | --- | --- | --- | --- | --- |
| B1 | 87 | 94 | 110 | 99 | 92 | 27 | 100 | 63 | 76 | 100 | 38 | 93 | 70 | 88 | 102 | 108 | 29 | 82 | 57 |  |
| B2 | 81 | 80 | 101 | 93 | 82 | 18 | 89 | 85 | 64 | 84 | 46 | 79 | 126 | 81 | 92 | 93 | 15 | 63 | 64 | no binding (tested: 100 µg/ml) |
| B3 | 108 | 107 | 110 | 100 | 93 | 44 | 100 | 84 | 82 | 100 | 101 | 97 | 37 | 94 | 102 | 110 | 39 | 99 | 81 | no binding (tested: 100 µg/ml) |
